Usually Kd stands for the equilibrium constant for the complex coming apart.

Three substances from PMC12638876 can be followed below.

For experiment [1], the target named is CXE15 C14S fused to split YFP (Arabidopsis thaliana) (UniProt Q9FG13). The experiment in a line: split reporter.
The target in experiment [2] is CXE15 C14S mutant (Arabidopsis thaliana) (UniProt Q9FG13). The experiment in a line: MST.
In experiment [3] the target is full-length Arabidopsis thaliana CXE15 (Arabidopsis thaliana) (UniProt Q9FG13). The experiment can be described thus: MST.

Some results are limits rather than exact numbers.

Substance “CXE15 C14S fused to split YFP (from UniProt Q9FG13 1-329) (enzyme)” came in with a fold reduction of BiFC fluorescence against wild-type CXE15 in experiment [1] above 2 fold.

In turn, “CXE15 C14S mutant (from UniProt Q9FG13 1-329) (enzyme)” gave a dissociation constant Kd in experiment [2] of 4.5 µM.

In the case of “full-length Arabidopsis thaliana CXE15 (from UniProt Q9FG13 1-329) (enzyme)”, in experiment [3], the Kd is 1.62 µM.
